According to patent publication EP1012244B1:

Target: HIV-1 strain IIIB envelope protein gp120/41 on the surface of HIV-1-infected Jurkat cells (HIV-1 strain IIIB) (UniProt P04578)
Assay: cell-based or functional assay

Substance: CXCR4 protein with an HA epitope tag (from UniProt P61073 1-352) (receptor)
- percentage of HIV-1+ cells that were also infected with VSVΔG-CC4: 90 to 95%
